Tests used:
[1] = molecular target: F-actin (actin filaments from rabbit skeletal muscle actin) (rabbit) (UniProt P68135); test: single-molecule TIRF microscopy
[2] = molecular target: mN2G^CH (N-terminal CH domains of nesprin-2G only) (mouse); test: mass photometry

- fold residence time on F-actin against utrophin [1]: > 2 fold
- stoichiometry N [2]: 2
Substance: mN2G^CH (N-terminal CH domains of nesprin-2G only) (domain or fragment)

From article PMC11844729
